Results as given in patent publication US6586559B2, “Polyamide oligomers” (Inex Pharmaceuticals Corporation, priority 1997, dated 2003).

Experiment: Encapsulation of cationic peptide IB510 in liposomes (extrusion, BioGel column, LSC/HPLC)
Assay type: physicochemical
Details: ATTA8-DSPE versus PEG-PE
Description: Lipid films (total of 100 mg of lipid) were prepared by dissolving appropriate quantities of individual lipids in 200 to 500 μL of chloroform, mixing the lipids, then removing the chloroform under high vacuum. Specifically, prepared lipid films were sphingomyelin/cholesterol/PEG-PE (50/45/5 molar ratios; prepared from 53.2 mg sphingomyelin, 26 mg cholesterol and 20 mg PEG-PE) and sphingomyelin/cholesterol/ATTA8-DSPE (50/45/5 molar ratios; prepared from 53.2 mg sphingomyelin, 26 mg cholesterol and 20 mg ATTA8-DSPE) and contained 1 μCi of 3H-cholesterylhexadecylether as a radiolabelled tracer. […] 5 μl were removed for phosphate assay to quantify the phospholipid and for liquid scintillation counting (LSC). […]
Aliquots of 200-400 μL of the large unilamellar vesicles containing IB510 were passed over a 20 cm×1 cm BioGel A-15 m (50-100 mesh) column pre-equilibrated in 150 mM NaCl and 20 mM Hepes (pH 7.5). […] The concentrations of liposomes and peptide were quantified by LSC and HPLC, respectively. Encapsulation efficiency was calculated from the post-column peptide/lipid ratio divided by the precolumn peptide/lipid ratio. […]

Row | Substance | encapsulation efficiency (comparison in words)
1 | N-(ω-azido-octa-(14′-amino-3′,6′,9′,12′-tetraoxatetradecanoyl))-1,2-distearoyl-sn-glycero-3-phosphoethanolamine [ATTA8-DSPE] | superior to PEG-PE
2 | Octa-(14-amino-3,6,9,12-tetraoxatetradecanoic acid) [ATTA8] | superior to PEG
